From patent US20060234343A1 (published 2006)

Target: T1, EGFR501Fcflag (ErbB1501.Fc fusion protein homodimer) (human, UniProt P00533 25-525)
T1 construct: Captured from 293T supernatant on protein G coated wells; also called truncated form of the extracellular domain of the EGF receptor, expressed as an Fc fusion homodimer; not shown: spacer peptide N-terminal of the Fc; human IgG1 Fc region (from a genomic fragment)
Test: Eu-EGF displacement by unlabelled EGF from the Fc fusion homodimer captured on protein G; the reference value is from the literature
Method: Ligand binding assays. The wells of a 96-well Lumitrac 600 plate (Greiner) were coated with protein G (2 ug/ml in 10 mM sodium citrate buffer, pH 9.6; Sigma). […] After incubation at room temperature, wells were aspirated, washed in TBS plus 0.05% Tween-20, and Enhancement Solution (Perkin-Elmer) added to each well for 20 minutes.

B1: EGF (species not stated) (ligand)
chain: NSYPGCPSSYDGYCLNGGVCMHIESLDSYTCNCVIGYSGDRCQTRDLRWWELR
modifications: In the FIG. 8 assay the trace is EGF mono-labelled with a europium chelate (Wallac); site not stated. The EGF in the ultracentrifuge is unlabelled.
notes: Kept apart from hEGF and mEGF because these experiments say only EGF; the two experiments may have used different EGF; also called unlabelled EGF; Eu-EGF (Wallac)
fold higher affinity than that reported for the full-length ErbB1 ectodomain-Fc fusion protein: 10 fold
